Test results reported in patent publication US20100135997A1 (MEDGENE, published 2010).
Positions count from the first letter of the chain named.

B1: SEQ ID NO 135 (receptor)
chain: MGHLPKPTLWAEPGSVITMDQPVTLRCQGGQETQEYRLYREKKTAPWITRIPQELVKKGQFPIPSITWEHAGRYRCYYGSDTSQWSASSDPLELVVTGVYIKPTLSAQPSPVVNSGGNVTLQCDSPFIADGFILCKEGEDEHPQCLNSQPHARGSSRAIFSVGPVSPSRRWWYRCYAYMSWSPYEWSLPSDLLELDVDG
notes: mutated soluble two domain ILT-2
B2: SEQ ID NO 128 (receptor)
chain: B1 chain with F127W, I128V
notes: as for B1
B3: SEQ ID NO 41 (receptor)
chain: B1 chain with S83A, Q84G, W85R, A87E, P126Q, F127V, I128A, A129F
notes: as for B1
B4: SEQ ID NO 132 (receptor)
chain: B1 chain with D130E
notes: as for B1
B5: SEQ ID NO 131 (receptor)
chain: B1 chain with I128Q
notes: mutated soluble two domain ILT-2; also called c132
B6: SEQ ID NO 31 (receptor)
chain: MGHLPKPTLWAEPGSVITMDQPVTLRCQGGQETQEYRLYREKKTAPWITRIPQELVKKGQFPIPSITWEHAGRYRCYYGSDTAGRSESSDPLELVVTGVYIKPTLSAQPSPVVNSGGNVTLQCDSQVAFDGFILCKEGEDEHPQCLNSQPHARGSSRAIFSVGPVSPSRRWWYRCYAYPIWTPYEWSLPSDLLELDVDG
notes: as for B1
B7: SEQ ID NO 130 (receptor)
chain: B1 chain with F127W, I128L
notes: as for B1
B8: SEQ ID NO 123 (receptor)
chain: B1 chain with E35Q, S83R, P126Q, F127V, I128A, A129F, E141D, W172R, M179D, W181N
notes: mutated soluble two domain ILT-2; also called Clone 64; c64
B9: SEQ ID NO 37 (receptor)
chain: B6 chain with I180A
notes: as for B1
B10: SEQ ID NO 35 (receptor)
chain: B6 chain with P179M, I180N, T182A
notes: as for B1
B11: SEQ ID NO 129 (receptor)
chain: B1 chain with I128L, A129T
notes: as for B1
B12: SEQ ID NO 39 (receptor)
chain: B6 chain with P179M, I180S, T182A
notes: as for B1
B13: SEQ ID NO 33 (receptor)
chain: B6 chain with P179V, I180A, T182A
notes: as for B1
B14: SEQ ID NO 7 (receptor)
chain: MAGHLPKPTLWAEPGSVITMDQPVTLRCQGGQETQEYRLYREKKTAPWITRIPQELVKKGQFPIPSITWEHAGRYRCYYGSDTSQWSASSDPLELVVTGVYIKPTLSAQPSPVVNSGGNVTLQCDSQVAFDGFILCKEGEDEHPQCLNSQPHARGSSRAIFSVGPVSPSRRWWYRCYAYPIWTPYEWSLPSDLLELDVDG
notes: as for B1
B15: SEQ ID NO 18 (receptor)
chain: B14 chain with P180M, I181S, T183A
notes: as for B1
B16: SEQ ID NO 46 (receptor)
chain: B14 chain with P180D, I181S, T183S
notes: as for B1
B17: SEQ ID NO 47 (receptor)
chain: B14 chain with P180M, I181S, W182N, T183A
notes: as for B1
B18: SEQ ID NO 44 (receptor)
chain: B14 chain with I181A, W182Y
notes: as for B1
B19: SEQ ID NO 11 (receptor)
chain: B14 chain with P180V, I181D, T183F
notes: as for B1
B20: SEQ ID NO 8 (receptor)
chain: B14 chain with P180V, I181A, T183A
notes: as for B1
B21: SEQ ID NO 10 (receptor)
chain: B14 chain with P180T, I181D, W182Y, T183S
notes: as for B1
B22: SEQ ID NO 17 (receptor)
chain: B14 chain with G3Q, F130Y, P180D, I181S, W182N, T183S
notes: as for B1
B23: SEQ ID NO 58 (receptor)
chain: B14 chain with P180D, I181S, W182N, T183S, L189Q, P190M
notes: as for B1
B24: SEQ ID NO 38 (receptor)
chain: B14 chain with M20Q, D21G, Q22S, P180M, I181S, T183A
notes: as for B1
B25: SEQ ID NO 52 (receptor)
chain: B14 chain with L189Q, P190M
notes: as for B1
B26: SEQ ID NO 15 (receptor)
chain: B14 chain with G3Q, A129S, P180D, I181S, W182N, T183S
notes: as for B1
B27: SEQ ID NO 16 (receptor)
chain: B14 chain with G3Q, A129T, P180D, I181S, W182N, T183S
notes: as for B1
B28: SEQ ID NO 32 (receptor)
chain: B14 chain with M20Q, D21G, Q22S, P180V, I181A, T183A
notes: as for B1
B29: SEQ ID NO 34 (receptor)
chain: B14 chain with M20Q, D21G, Q22S, P180M, I181N, T183A
notes: as for B1
B30: SEQ ID NO 54 (receptor)
chain: B14 chain with L189T, P190S
notes: as for B1
B31: SEQ ID NO 12 (receptor)
chain: B14 chain with P180V, I181S, W182Y, T183W
notes: as for B1
B32: SEQ ID NO 45 (receptor)
chain: B14 chain with P180M, I181S, W182N, T183S
notes: as for B1
B33: SEQ ID NO 59 (receptor)
chain: B14 chain with P180D, I181S, W182N, T183S, L189S, P190G
notes: as for B1
B34: SEQ ID NO 22 (receptor)
chain: B14 chain with P180G, I181R, T183L
notes: as for B1
B35: SEQ ID NO 30 (receptor)
chain: B14 chain with M20Q, D21G, Q22S
notes: as for B1
B36: SEQ ID NO 36 (receptor)
chain: B14 chain with M20Q, D21G, Q22S, I181A
notes: as for B1
B37: SEQ ID NO 55 (receptor)
chain: B14 chain with L189S, P190G
notes: as for B1
B38: SEQ ID NO 57 (receptor)
chain: B14 chain with P180D, I181S, W182N, T183S, S188T, L189R, P190G
notes: as for B1
B39: SEQ ID NO 9 (receptor)
chain: B14 chain with P180M, I181N, T183A
notes: as for B1
B40: SEQ ID NO 20 (receptor)
chain: B14 chain with I181D, W182F
notes: as for B1
B41: SEQ ID NO 51 (receptor)
chain: B14 chain with P190G
notes: as for B1
B42: SEQ ID NO 21 (receptor)
chain: B14 chain with I181W, W182F
notes: as for B1
B43: SEQ ID NO 53 (receptor)
chain: B14 chain with S188T, L189R, P190G
notes: as for B1
B44: SEQ ID NO 43 (receptor)
chain: B14 chain with P180M, I181S, W182Y, T183S
notes: as for B1
B45: SEQ ID NO 23 (receptor)
chain: B14 chain with P180V, I181E, T183L
notes: as for B1
B46: SEQ ID NO 14 (receptor)
chain: B14 chain with G3Q, A129D, P180D, I181S, W182N, T183S
notes: as for B1
B47: SEQ ID NO 56 (receptor)
chain: B14 chain with S188T, P190G
notes: as for B1
B48: SEQ ID NO 13 (receptor)
chain: B14 chain with I181A
notes: as for B1
B49: SEQ ID NO 48 (receptor)
chain: B14 chain with P180D, I181S, T183A
notes: as for B1
B50: SEQ ID NO 40 (receptor)
chain: B14 chain with M20Q, D21G, Q22S, P180M, I181S, T183S
notes: as for B1

Molecular target: T1, HLA-A*0201 loaded with the Carcinoembryonic antigen (CEA)-derived … peptide (biotin on the C-terminal biotinylation tag)
T1 construct: Soluble, biotinylated, immobilised on a streptavidin chip
Test: Biacore SPR
Description: SPR measures changes in refractive index expressed in response units (RU) near a sensor surface within a small flow cell, a principle that can be used to detect receptor ligand interactions and to analyse their affinity and kinetic parameters. The probe flow cells were prepared by immobilising the pMHC complexes in flow cells via biotin-tag binding. The assay was then performed by passing soluble ILT-like molecule over the surfaces of the different flow cells at a constant flow rate, measuring the SPR response in doing so.

Kd [µM]	koff [s⁻¹]	Binder
≤ 1	≤ 2	B1
≤ 1	≤ 2	B2
≤ 1	≤ 2	B3
≤ 1	≤ 2	B4
≤ 1	≤ 2	B5
≤ 1	≤ 2	B6
≤ 1	≤ 2	B7
≤ 1	≤ 2	B8
≤ 1	≤ 2	B9
≤ 1	≤ 2	B10
≤ 1	≤ 2	B11
≤ 1	≤ 2	B12
≤ 1	≤ 2	B13
≤ 1	≤ 2	B14
≤ 1	≤ 2	B15
≤ 1	≤ 2	B16
≤ 1	≤ 2	B17
≤ 1	≤ 2	B18
≤ 1	≤ 2	B19
≤ 1	≤ 2	B20
≤ 1	≤ 2	B21
≤ 1	≤ 2	B22
≤ 1	≤ 2	B23
≤ 1	≤ 2	B24
≤ 1	≤ 2	B25

Kd [µM]	koff [s⁻¹]	Binder
≤ 1	≤ 2	B26
≤ 1	≤ 2	B27
≤ 1	≤ 2	B28
≤ 1	≤ 2	B29
≤ 1	≤ 2	B30
≤ 1	≤ 2	B31
≤ 1	≤ 2	B32
≤ 1	≤ 2	B33
≤ 1	≤ 2	B34
≤ 1	≤ 2	B35
≤ 1	≤ 2	B36
≤ 1	≤ 2	B37
≤ 1	≤ 2	B38
≤ 1	≤ 2	B39
≤ 1	≤ 2	B40
≤ 1	≤ 2	B41
≤ 1	≤ 2	B42
≤ 1	≤ 2	B43
≤ 1	≤ 2	B44
≤ 1	≤ 2	B45
≤ 1	≤ 2	B46
≤ 1	≤ 2	B47
≤ 1	≤ 2	B48
≤ 1	≤ 2	B49
≤ 1	≤ 2	B50
